In publication PMC3025077 (Peptides, 2010):

Tests used:
[1] = molecular target: T1, human Y5 receptor (Homo sapiens, UniProt Q15761); details: uncompeted specific binding at 50 pM [125I]agonist as percent of the specific binding of [125I]hNPY; human Y5 in HEK293 cells; ± S.E.M.; SEM
T1 sequence (Q15761 1-445): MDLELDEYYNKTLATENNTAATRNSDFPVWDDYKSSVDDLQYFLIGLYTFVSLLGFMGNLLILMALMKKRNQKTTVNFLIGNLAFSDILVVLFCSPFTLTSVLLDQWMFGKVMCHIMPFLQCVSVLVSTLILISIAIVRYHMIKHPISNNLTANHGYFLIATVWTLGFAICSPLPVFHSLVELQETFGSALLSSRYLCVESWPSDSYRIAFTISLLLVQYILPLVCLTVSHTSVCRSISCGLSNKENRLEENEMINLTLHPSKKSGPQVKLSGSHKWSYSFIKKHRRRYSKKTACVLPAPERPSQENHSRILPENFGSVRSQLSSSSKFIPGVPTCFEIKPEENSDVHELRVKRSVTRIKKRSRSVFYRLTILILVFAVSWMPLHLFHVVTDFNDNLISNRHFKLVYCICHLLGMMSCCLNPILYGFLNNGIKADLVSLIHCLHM

[2] = system: hY1-CHO; assay: Non-specific binding of agonists, saturation and time course, hY1-CHO; details: hyperbolic fit; 50 pM tracer at 100 nM unlabeled peptide over 3, 6, 10, 20 and 30 min at 25 °C

% of NPY binding, Y5 [1]: 96.5 ±16%
Half-period of equilibration of non-specific binding, hY1-CHO [2]: 1.72 ± 0.11 min
Substance: human (Leu^31,Pro^34) peptide YY [LP-hPYY]
